Test results as given in the supplement of paper PMC11316812.
± gives the standard deviation of the averaged measurements.

Legend:
[1] = system: MCF7; test: percentage of EdU-negative (G0-arrested) nuclei per well, 72 h; higher = more G0 arrest; conditions: reference: sequence is the full UniProt precursor, the tested protein was the secreted form or ectodomain
[2] = system: hTERT-HMEC; test: as above; conditions: reference: sequence is the full UniProt precursor, the tested protein was the secreted form or ectodomain
[3] = protein concentration 0.0257143 µM
[4] = protein concentration 0.257143 µM
[5] = protein concentration 0.01422 µM
[6] = protein concentration 0.1422 µM
[7] = protein concentration 0.02525 µM
[8] = protein concentration 0.2525 µM
[9] = protein concentration 0.0225 µM
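Further: secreted proteins added to cultured cells, EdU pulse at the end, nuclei found by Hoechst imaging, EdU status from nuclear versus surrounding ring intensity ratio, PBS as neutral control.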

Sequence: MAPPSVPLVLLLVLLLSLAETPASAPAHRGRGGWTLNSAGYLLGPVLHLPQMGDQDGKRETALEILDLWKAIDGLPYSHPPQPSKRNVMETFAKPEIGDLGMLSMKIPKEEDVLKS [Q9UBC7]
- percentage of EdU-negative [1, 3]: 25.7 ± 2.2%
- percentage of EdU-negative [1, 4]: 27.5 ± 3%
- percentage of EdU-negative [2, 3]: 5.31 ± 1.9%
- percentage of EdU-negative [2, 4]: 6.11 ± 0.2%

Sequence: MGAPACALALCVAVAIVAGASSESLGTEQRVVGRAAEVPGPEPGQQEQLVFGSGDAVELSCPPPGGGPMGPTVWVKDGTGLVPSERVLVGPQRLQVLNASHEDSGAYSCRQRLTQRVLCHFSVRVTDAPSSGDDEDGEDEAEDTGVDTGAPYWTRPERMDKKLLAVPAANTVRFRCPAAGNPTPSISWLKNGREFRGEHRIGGIKLRHQQWSLVMESVVPSDRGNYTCVVENKFGSIRQTYTLDVLERSPHRPILQAGLPANQTAVLGSDVEFHCKVYSDAQPHIQWLKHVEVNGSKVGPDGTPYVTVLKTAGANTTDKELEVLSLHNVTFEDAGEYTCLAGNSIGFSHHSAWLVVLPAEEELVEADEAGSVYAGILSYGVGFFLFILVVAAVTLCRLRSPPKKGLGSPTVHKISRFPLKRQVSLESNASMSSNTPLVRIARLSSGEGPTLANVSELELPADPKWELSRARLTLGKPLGEGCFGQVVMAEAIGIDKDRAAKPVTVAVKMLKDDATDKDLSDLVSEMEMMKMIGKHKNIINLLGACTQGGPLYVLVEYAAKGNLREFLRARRPPGLDYSFDTCKPPEEQLTFKDLVSCAYQVARGMEYLASQKCIHRDLAARNVLVTEDNVMKIADFGLARDVHNLDYYKKTTNGRLPVKWMAPEALFDRVYTHQSDVWSFGVLLWEIFTLGGSPYPGIPVEELFKLLKEGHRMDKPANCTHDLYMIMRECWHAAPSQRPTFKQLVEDLDRVLTVTSTDEYLDLSAPFEQYSPGGQDTPSSSSSGDDSVFAHDLLPPAPPSSGGSRT
- percentage of EdU-negative [1, 5]: 27.1 ± 3.1%
- percentage of EdU-negative [1, 6]: 25.5 ± 3.1%
- percentage of EdU-negative [2, 5]: 5.58 ± 0.063%
- percentage of EdU-negative [2, 6]: 5.64 ± 0.3%

Sequence: MLPGAWLLWTSLLLLARPAQPCPMGCDCFVQEVFCSDEELATVPLDIPPYTKNIIFVETSFTTLETRAFGSNPNLTKVVFLNTQLCQFRPDAFGGLPRLEDLEVTGSSFLNLSTNIFSNLTSLGKLTLNFNMLEALPEGLFQHLAALESLHLQGNQLQALPRRLFQPLTHLKTLNLAQNLLAQLPEELFHPLTSLQTLKLSNNALSGLPQGVFGKLGSLQELFLDSNNISELPPQVFSQLFCLERLWLQRNAITHLPLSIFASLGNLTFLSLQWNMLRVLPAGLFAHTPCLVGLSLTHNQLETVAEGTFAHLSNLRSLMLSYNAITHLPAGIFRDLEELVKLYLGSNNLTALHPALFQNLSKLELLSLSKNQLTTLPEGIFDTNYNLFNLALHGNPWQCDCHLAYLFNWLQQYTDRLLNIQTYCAGPAYLKGQVVPALNEKQLVCPVTRDHLGFQVTWPDESKAGGSWDLAVQERAARSQCTYSNPEGTVVLACDQAQCRWLNVQLSPQQGSLGLQYNASQEWDLRSSCGSLRLTVSIEARAAGP
- percentage of EdU-negative ([1]; protein concentration 0.016 µM): 25.6 ± 2.9%
- percentage of EdU-negative ([1]; protein concentration 0.16 µM): 31.1 ± 1.1%
- percentage of EdU-negative ([2]; protein concentration 0.016 µM): 4.47 ± 0.7%
- percentage of EdU-negative ([2]; protein concentration 0.16 µM): 9.62 ± 2.1%

Sequence: MVPKLFTSQICLLLLLGLMGVEGSLHARPPQFTRAQWFAIQHISLNPPRCTIAMRAINNYRWRCKNQNTFLRTTFANVVNVCGNQSIRCPHNRTLNNCHRSRFRVPLLHCDLINPGAQNISNCTYADRPGRRFYVVACDNRDPRDSPRYPVVPVHLDTTI
- percentage of EdU-negative ([1]; protein concentration 0.022 µM): 26.3 ± 2.1%
- percentage of EdU-negative ([1]; protein concentration 0.22 µM): 25.35 ± 0.13%
- percentage of EdU-negative ([2]; protein concentration 0.022 µM): 5.32 ± 0.8%
- percentage of EdU-negative ([2]; protein concentration 0.22 µM): 6.25 ± 2.1%

Sequence: MPAGRAARTCALLALCLLGAGAQDFGPTRFICTSVPVDADMCAASVAAGGAEELRSSVLQLRETVLQQKETILSQKETIRELTAKLGRCESQSTLDPGAGEARAGGGRKQPGSGKNTMGDLSRTPAAETLSQLGQTLQSLKTRLENLEQYSRLNSSSQTNSLKDLLQSKIDELERQVLSRVNTLEEGKGGPRNDTEERVKIETALTSLHQRISELEKGQKDNRPGDKFQLTFPLRTNYMYAKVKKSLPEMYAFTVCMWLKSSATPGVGTPFSYAVPGQANELVLIEWGNNPMEILINDKVAKLPFVINDGKWHHICVTWTTRDGVWEAYQDGTQGGSGENLAPYHPIKPQGVLVLGQEQDTLGGGFDATQAFVGELAHFNIWDRKLTPGEVYNLATCSTKALSGNVIAWAESHIEIYGGATKWTFEACRQIN
- percentage of EdU-negative [1, 7]: 26.9 ± 2.1%
- percentage of EdU-negative [1, 8]: 24.2 ± 4.3%
- percentage of EdU-negative [2, 7]: 5.12 ± 0.18%
- percentage of EdU-negative [2, 8]: 4.43 ± 0.47%

Sequence: MEIVWEVLFLLQANFIVCISAQQNSPKIHEGWWAYKEVVQGSFVPVPSFWGLVNSAWNLCSVGKRQSPVNIETSHMIFDPFLTPLRINTGGRKVSGTMYNTGRHVSLRLDKEHLVNISGGPMTYSHRLEEIRLHFGSEDSQGSEHLLNGQAFSGEVQLIHYNHELYTNVTEAAKSPNGLVVVSIFIKVSDSSNPFLNRMLNRDTITRITYKNDAYLLQGLNIEELYPETSSFITYDGSMTIPPCYETASWIIMNKPVYITRMQMHSLRLLSQNQPSQIFLSMSDNFRPVQPLNNRCIRTNINFSLQGKDCPNNRAQKLQYRVNEWLLK [Q9NS85]
- percentage of EdU-negative [1, 9]: 25.5 ± 2.5%
- percentage of EdU-negative ([1]; protein concentration 0.225 µM): 27.9 ± 0.69%
- percentage of EdU-negative [2, 9]: 5.049 ± 0.027%
- percentage of EdU-negative ([2]; protein concentration 0.225 µM): 8.51 ± 1.1%
